{"source": "patent US20240189352A1", "about": "(MAX DELBR CK CENTRUM F R MOLEKULARE MEDIZIN IN DER …, published 2024)", "binders": {"B1": {"name": "RAC2-T002 TCR (TCR, V domains shown)", "V domain 1": "AQSVTQLGSHVSVSEGALVLLRCNYSSSVPPYLFWYVQYPNQGLQLLLKYTTGATLVKGINGFEAEFKKSETSFHLTKPSAHMSDAAEYFCAVGANNLFFGTGTRLTVIP", "V domain 2": "EPEVTQTPSHQVTQMGQEVILRCVPISNHLYFYWYRQILGQKVEFLVSFYNNEISEKSEIFDDQFSVERPDGSNFTLKIRSTKLEDSAMYFCASSEWRGSSYNEQFFGPGTRLTVL"}, "B2": {"name": "RAC2-T001 TCR (TCR, V domains shown)", "V domain 1": "GENVEQHPSTLSVQEGDSAVIKCTYSDSASNYFPWYKQELGKGPQLIIDIRSNVGEKKDQRIAVTLNKTAKHFSLHITETQPEDSAVYFCAASMGNAGNMLTFGGGTRLMVKP", "V domain 2": "EPEVTQTPSHQVTQMGQEVILRCVPISNHLYFYWYRQILGQKVEFLVSFYNNEISEKSEIFDDQFSVERPDGSNFTLKIRSTKLEDSAMYFCASSETSGASYEQYFGPGTRLTVT"}}, "key": {"[1]": {"target": "wild-type RAC1/2 peptide presented by HLA-A2 (peptide-loaded T2 cells) (human)", "assay": "cell-based or functional assay"}, "[2]": {"target": "HLA-A2-restricted GNAZ peptide … presented by HLA-A2 (human)", "assay": "cell-based or functional assay"}}}
{"binder": "B1", "values": [{"measurement": "IFNγ production by TCR-transduced T cells (relative to unmodified RAC2^P29L)", "setting": "[1]", "result": 35, "unit": "%"}]}
{"binder": "B2", "values": [{"measurement": "IFNγ production of T001 TCR-transduced T cells upon coculture with peptide-loaded T2 cells (relative to PMA and ionomycin maximum)", "setting": "[2]", "result": "~30", "unit": "%"}]}
